Experimental data as given in the DeepSol protein solubility set.

experiment: soluble on expression in E. coli; label from the status in PepcDB or PDB records

Row | Sequence | soluble on expression in E. coli
1 | MMRNFGREFLEETSIFENKTCLIWRDREISFKEFHEYIGKWKNVLDEQKTKTTNPLRIALFCTNSPDILAIIVAGQLSGVTVIPLNPSYKKYEIDEYISKSIANFIIVSDDVDLDKFEEREVNLISELFTSNVTPSSTASTPENQGVIVFFSSGTTGPPKQFEYTQRILCSQIDQIKAIRSDPRFFSPSTDDICYGVLPFFHAGGLITILSMIFSGCTVLINERWNEHEFLANCQNYKVSVLFLVPPVLNFFANHPLVSSYDLSALKTIYVGAAASPPENFAKVAERLPELENLIQLYGTSECGVLLCSTGKGKASGKTVGWPFPFVELKINPENNEIFVKSATAMEEGFMETGDLGCLSFKTIELMIVGRSKEMMKIRGWQVNPNEVEDVIRKVEGVLDCAVYQNQEKLTAKIIGNPDSKADIFKIVKDNLASYKQLDDVIFVEELPRNPSGKLVRHMLH | not soluble
2 | MMRVKFNGKELDTDFKTSLEFFENISKNENDVWIINGFATKENIALNENDELFCIEKNTLPPKDALDAMMRARHTPKLHDKLKNGRVAVCGLGGLGSHIAINLARSGVGYLKLIDFDVIEPSNLNRQAYRVSDLGKFKTEALKEQISEINPYISVEICTLKIDEDNLESLFKDIDIVCEAFDSAIAKAMIAQNFHRFYKDGILICASGLAGYGDSNSIQTRKIAKNFYVCGDLVNGAKLGNGLMAPRVNICAGHQSNLVLELLANKELEHHHHHH | soluble
3 | MMSTSDRSRLPLVYACSGCSSVAQLANAFAVRLDRSGQAEMSCISGVGGRVPALTRIAQSGRPILAIDGCQLACVKACLEGVGVVASRHLVLNRIGATKRQHGECTEAEEAATWQSIKLALSEILPVSESVVSN | soluble
4 | MMTADAGICRPFKTKPARTIFGRFPARTVCLCASAIWTAAKSRCGWTAGVPSSLPTLPHPANAIPPNTVCSETQPSGTRKAAKPFSALPMPTAIRSKLPAAPVKRGSLFEPPSRFFGRFFVSDGRFFVSDLFCSSASGRVRAA | not soluble
5 | MMTRLPLGATLPDFPWDSLADAKKTASSHPDGLINLSVGSPVDEVAPGIRLALAEAAAAPGYPQTIGTQELRAAIVDSLQRRYHATSLGGVLPVVGTKEAIALLPTLLGIRGTVVIPEVAYPTYEVGALMAGATPLRCDAPHELPNDDIDLVFINSPSNPTGRVASVEELRSIVAWAQANDVIVASDECYLGLAWDGEAVSILDPRVNDGNLSNLLAIHSLSKSSNLASYRAGFLAGDEALIAELTEIRKHSGLMVPGPIQAAMVEALRDDDQEALQKLRYARRRALLMRALIDAGFTVEHSEAGLYLWATRGENCRATVDWFASHGILVAPGDFYGPDAHNFVRVALTTTDDNAEKVAARLQKGN | soluble
6 | MMVVNIKMQQMKSQFIQYNDSNNKVLYQKCKPVADIQNAEIQNIITEMHEKMQGNGIGLAANQIGYPYQIFMIEFDSSNARYPFSFDSVPYQVFINPKITKASKQRVSFWHGCLSALGEKRGKLATYKEIEYEAYNQHGEKITGKLDSIAAIIFQHEFNHLLGSVYVDFDTEYIDNEELQAKFASGELKPYQECGEEVPLLLEKYQIGKNI | not soluble
7 | MMWIPYNQGFHAGPKCLTVVFIYLLNMKVLRHIYRFLMELYGPQGWWPLLDRDTMTLRYHPGDYTPPSDDGDVFEVITGSILTQNTSWDSAASALRNLAAMDALKPHRILSLDDAELEAAIRCAGFYRQKVSYLREMAGFFISLEGSTPSRKELLKVRGVGPETADSVLLYAYRKPEFVVDAYTRRILTHLGLIAGDESYHRIKELFERSLEPDFRVFQEYHALIVRHGKSYYRGRVHGDGDPLTEKLEHHHHHH | not soluble
8 | MNAILHDMAVPFYKPVSNECSLFEAASRKGLPLLLKGPTGCGKTRFVEHMAARMGRKLYTVACHDDLSAADLIGRYLLKGGATEWVDGPLTRAVREGAICYLDEVVEARKDVTVVLHPLTDNRRTLMIDRTGEELVAPPGFMLVASYNPGYQNILKRLKPSTRQRFLSIGFTFPDPVTETAVVARESGLSEAKVAPLVRLAGHVRALSGMDLEEGVSTRLLVYAASLMAGGMSIEAALEAAVIEPLTDEPDVAQALRDLIATVYGLEHHHHHH | not soluble
9 | MNAPIEPHRFILEPFEAHRFANLCGQFDEHLRLIEQRLAIEIRNRGNQFELIGEPRTTSAAEQLLRRLYRETKATDLSPETVHLYLQESAVENIDNPAVNEVSVSLRTRKGNIRPRGLNQQRYVKEILANDINFGIGPAGTGKTYLAVACAVDALEREQVRRILLVRPAVEAGEKLGFLPGDLAQKIDPYLRPLYDALYEMLGFEHVAKLIERQVIEIAPLAYMRGRTLNNSFIILDESQNTTLEQMKMFLTRIGFGSTAVITGDITQVDLPRGTKSGLAHVIEVLKDVPGISFTHFQPKDVVRHPLVQRIVEAYDRFEARQPKPEASGKDA | not soluble
10 | MNAVTEGRKVLLEIADLKVHFEIKDGKQWFWQPPKTLKAVDGVTLRLYEGETLGVVGESGCGKSTFARAIIGLVKATDGHVAWLGKELLGMKPDEWRAVRSDIQMIFQDPLASLNPRMTIGEIIAEPLRTYHPKMSRQEVRERVKAMMLKVGLLPNLINRYPHEFSGGQCQRIGIARALILEPKLIICDEPVSALDVSIQAQVVNLLQQLQREMGLSLIFIAHDLAVVKHISDRVLVMYLGHAVELGTYDEVYHNPLHPYTRALMSAVPIPDPDLEKNKTIQLLEGELPSPINPPSGCVFRTRCPIAGPECAKTRPVLEGSFRHAVSCLKVDPL | not soluble
11 | MNCREGCGACCIAPSISTPIPGMPQGKPAGERCLHLSVEHLCGLFGLPERPAVCGAFLADPEVCGESREEAIRLIGWWEQVTAALEHHHHHH | not soluble
12 | MNDIAHNLAQVRDKISAAATRCGRSPEEITLLAVSKTKPASAIAEAIDAGQRQFGENYVQEGVDKIRHFQELGVTGLEWHFIGPLQSNKSRLVAEHFDWCHTIDRLRIATRLNDQRPAELPPLNVLIQINISDENSKSGIQLAELDELAAAVAELPRLRLRGLMAIPAPESEYVRQFEVARQMAVAFAGLKTRYPHIDTLSLGMSDDMEAAIAAGSTMVRIGTAIFGARDYSKK | soluble
13 | MNEAEQELYEALVAICQTSGFLLLEELPTDLPDQPFVYLGDSKELPKPTKSAILGEIELIMHVYGALSERQQISTIKGTILRQATSNLKRTAHFNWGIKHQEVKAQMVKDTKQMKKTIWHAVLPLHMQFY | not soluble
14 | MNEIKLKYDTQVSVVHYESLDSRSFKSFSMPKWSKLVNKLSVPIEANYKYARGVAVYGDIKDNTNDHGEIIKKHRNDKNVIYRNVIVLDYDEINDVKQLHDAISSVLSSVAWYWHTSFSHTTEQARIRLYIPLNERISADDYRKYTKVLANKIGHKVDEGSYQPSRCFALPVIQKGHIFIKRVNDCPIMDVDMLEQWSKEYKQSNGSPNIKGYTRRDSAYWRDIAFGVSEGERNSTLASITGYLLRRYVDPNLVYGLVSAWASVCKPPINQSEVNNTFKSILKKDSKNS | not soluble
15 | MNEKVFRDPVHNYIHVNNQIIYDLINTKEFQRLRRIKQLGTSSYTFHGGEHS | soluble
16 | MNELKNAQTASAHRILLPLLRCIASGAADVTEEGNEIVLRRKRPGQAVQRFPTETVRLAVSSGLLEWRQNSLSAAPPLASYLKRATAKDRDEVFQEQHRDIQTVVVEIDETKQPARRNLNTAPLTSLSRLKERDGSAFFPEDALAAGERLAADFHRGHLNPRVTATWEPRIASRGKGEAGGALDLTEAAMAARARFSRAADAMGPELSGVAIDICCFEKGLETVERERLWPARSAKLLLRAALLSLARHYAPPVPPARGKDRPKERHWGDADYRPSLR | not soluble
17 | MNELVSIITPCYNSAATIRETIRSVIAQSYVNWELLIIDDCSNDDSVKIIMEFMDTDSRIYYLKTEHPSGGPTLPRNVGIQAAKGRFIAFLDSDDIWLPNKLSTQLPLFINDNVAIVYSDYEKISEEGNRTGRIVKSDPYHHYKSLLCGNELGCLTVVYDTQKIGKRYFKFIGHEDYNLWLDILKEGFIAINTNICLALYRIRKGSVSSNKLRVIKWIWHIYRVEQKKTIWLSLYYSLSDLNKSLFKYLKLEHHHHHH | soluble
18 | MNEPSACSGPPVKSKSSKNEPFYTLKALLPPYSEIQGNHDLLMSYELGPVEGGFSGSRRVKEKISSFLPHIIGEFHLDATKEASSLRALIEKPPIHKEISNLTSSSMQGFKLSAGPVDERYRHLFERRKEEPNLAYSEKLNLIRVRQQYDAYGFDDDETEKGFPKKHKKKKKDKKRKKEKEELGDAEKRKRAADEPMEF | not soluble
19 | MNEYAPLRLHVPEPTGRPGCQTDFSYLRLNDAGQARKPPVDVDAADTADLSYSLVRVLDEQGDAQGPWAEDIDPQILRQGMRAMLKTRIFDSRMVVAQRQKKMSFYMQSLGEEAIGSGQALALNRTDMCFPTYRQQSILMARDVSLVEMICQLLSNERDPLKGRQLPIMYSVREAGFFTISGNLATQFVQAVGWAMASAIKGDTKIASAWIGDGATAESDFHTALTFAHVYRAPVILNVVNNQWAISTFQAIAGGESTTFAGRGVGCGIASLRVDGNDFVAVYAASRWAAERARRGLGPSLIEWVTYRAGPHSTSDDPSKYRPADDWSHFPLGDPIARLKQHLIKIGHWSEEEHQATTAEFEAAVIAAQKEAEQYGTLANGHIPSAASMFEDVYKEMPDHLRRQRQELGV | soluble
20 | MNFIIEPGSLADIDELERLYDELNDHLSATINYPGWIKGIYPVRENAAAGVDDNSLFVARCDGRIAGSVILDHQPEKAYENIVWKIDADYSYIFVVRTFVVHPSFLQMGVGHALMDFSLELALKSEMKSIRLDVYEKNLPAISLYEKCGFEYIDTVDLGLGHYGLDWFKLYEKVILEHHHHHH | soluble
21 | MNFLRKIVKNCKDEEIPKPGTPSAPPDDDDLWMPPPEYVPLTQIKGKENVRNFCINGEIKICSPNGYSFRILRHILKSFDNVYSGNRRLIGVVKVVIGLVLSASPVPEGMNWVYKLRRTLIFQWAESHGPLEGEELEYSQEITWDDEAEFVSLQIRVSAKQCHIQGRLWCINMNSKACQLWADMGLKTQQSQEDENTSLLLE | soluble
22 | MNGAELIIQEINKEAERKIEYILNEARQQAEKIKEEARRNAEAKAEWIIRRAKTQAELEKQRIIANARLEVRRKRLAIQEEIISSVLEEVKRRLETMSEDEYFESVKALLKEAIKELNEKKVRVMSNEKTLGLIASRIEEIKSELGDVSIELGETVDTMGGVIVETEDGRIRIDNTFEARMERFEGEIRSTIAKVLFG | soluble
23 | MNGGGKNVLNKNSVGSVSEVGPDSTQEETPRDVRLLHLLLASQSIHQYEDQVPLQLMDFAHRYTQGVLKDALVYNDYAGSGNSAGSGLGVEDIRLAIAARTQYQFKPTAPKELMLQLAAERNKKALPQVMGTWGVRLPPEKYCLTAKEWDLEDPKSM | not soluble
24 | MNGTRNWCTLVDVHPEDRAAGSVDILRLTLQGEPTGDELEHIAQKAGRKTYAMVSSHSAGHSLASELVESHDGHEEIIKVYLKGRSGDKMIHEKNINQLKSEVQYIQEARNCLQKLREDISSKLDRNLGDSLHRQEIQVVLEKPNGFSQSPTALYSSPPEVDTCINEDVESLRKTVQDLLAKLQEAKRQHQSDCVAFEVTLSRYQREAEQSNVALQREEDRVEQKEAEVGELQRRLLGMETEHQALLAKVREGEVALEELRSNNADCQAEREKAATLEKEVAGLREKIHHLDDMLKSQQRKVRQMIEQLQNSKAVIQSKDATIQELKEKIAYLEAENLEMHDRMEHLIEKQISHGNFSTQARAKTENPGSIRISKPPSPKPMPVIRVVET | soluble
25 | MNHFELYKLKKAGLTNKNILNILDYQKHQEKSLSLRDMAVVSGCKHPSHFIEAYKQLDIQNLKMEFKQFPSISILDKHYPMALKEIYNPPVLLFFQGNLDLLEKPKLAIVGSRRSSDTGVKSVRKILKELGNRFVIVSGLARGIDTSAHLACLKNGGQTIAIIGTGLDRFYPKENRELQTFLGKNHLVLTEYGPGEEALSYHFPERNRIIAGLSRGILVVEAKNRSGSLITCQIGIEEGRDIFAVPGNILDGKSEGCLQLIKEGATCVTSGMDILSEY | not soluble
